Experimental data: the supplement of paper PMC5998384

Experiments:
HeLa Kyoto [1] = assay: solubility in G1/S (NP-40 vs SDS abundance) (log2 ratio); higher = more soluble; details: cell cycle stage: G1/S
HeLa Kyoto [2] = assay: melting temperature (median over replicates), in situ; higher = more thermally stable
HeLa Kyoto [3] = assay: solubility change mitosis vs G1/S (difference of NP-40 vs SDS log2 ratios) (log2 ratio difference); higher = more soluble in mitosis
HeLa Kyoto [4] = assay: thermal stability score vs G1/S (z-score of summed log2 fold changes over temperatures); higher = more thermally stable than in G1/S
[5] = cell cycle stage: early G1 (4.5 h after nocodazole release)
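Wherever melting temperature (median over replicates), in situ is given: HeLa Kyoto cells synchronized by double thymidine or nocodazole block, proteins quantified by TMT10plex mass spectrometry, three independent biological replicates.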
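Wherever solubility change mitosis vs G1/S (difference of NP-40 vs SDS log2 ratios) is given: synchronized HeLa Kyoto cells (double thymidine block for G1/S, nocodazole release for mitosis), protein amounts in NP-40 versus SDS lysates quantified by mass spectrometry, three biological replicates.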
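Wherever solubility in G1/S (NP-40 vs SDS abundance) is given: HeLa Kyoto cells arrested at G1/S by double thymidine block, proteins quantified by TMT10plex mass spectrometry in mild NP-40 versus SDS extracts, three biological replicates.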
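Wherever thermal stability score vs G1/S (z-score of summed log2 fold changes over temperatures) is given: synchronized HeLa Kyoto cells, proteins quantified by TMT10plex mass spectrometry, three biological replicates, mitosis taken 0.5 h after nocodazole release, G1/S directly after double thymidine block.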

| Sequence | solubility in G1/S (log2) (HeLa Kyoto [1]) | melting temperature (HeLa Kyoto [2]; cell cycle stage: G1/S) [°C] | melting temperature (HeLa Kyoto [2]; cell cycle stage: mitosis) [°C] | solubility change mitosis (log2) (HeLa Kyoto [3]) | thermal stability score (HeLa Kyoto [4]; [5]) | thermal stability score (HeLa Kyoto [4]; cell cycle stage: mitosis) |
| --- | --- | --- | --- | --- | --- | --- |
| MFSFEGDFKTRPKVSLGGASRKEEKASLLHRTQEERRKREEERRRLKNAIIIQSFIRGYRDRKQQYSIQRSAFDRCATLSQSGGAFPIANGPNLTLLVRQLLFFYKQNEDSKRLIWLYQNLIKHSSLFVKQLDGSERLTCLFQIKRLMSLCCRLLQNCNDDSLNVALPMRMLEVFSSENTYLPVLQDASYVVSVIEQILHYMIHNGYYRSLYLLINSKLPSSIEYSDLSRVPIAKILLENVLKPLHFTYNSCPEGARQQVFTAFTEEFLAAPFTDQIFHFIIPALADAQTVFPYEPFLNALLLIESRCSRKSGGAPWLFYFVLTVGENYLGALSEEGLLVYLRVLQTFLSQLPVSPASASCHDSASDSEEESEEADKPSSPEDGRLSVSYITEECLKKLDTKQQTNTLLNLVWRDSASEEVFTTMASVCHTLMVQHRMMVPKVRLLYSLAFNARFLRHLWFLISSMSTRMITGSMVPLLQVISRGSPMSFEDSSRIIPLFYLFSSLFSHSLISIHDNEFFGDPIEVVGQRQSSMMPFTLEELIMLSRCLRDACLGIIKLAYPETKPEVREEYITAFQSIGVTTSSEMQQCIQMEQKRWIQLFKVITNLVKMLKSRDTRRNFCPPNHWLSEQEDIKADKVTQLYVPASRHVWRFRRMGRIGPLQSTLDVGLESPPLSVSEERQLAVLTELPFVVPFEERVKIFQRLIYADKQEVQGDGPFLDGINVTIRRNYIYEDAYDKLSPENEPDLKKRIRVHLLNAHGLDEAGIDGGGIFREFLNELLKSGFNPNQGFFKTTNEGLLYPNPAAQMLVGDSFARHYYFLGRMLGKALYENMLVELPFAGFFLSKLLGTSADVDIHHLASLDPEVYKNLLFLKSYEDDVEELGLNFTVVNNDLGEAQVVELKFGGKDIPVTSANRIAYIHLVADYRLNRQIRQHCLAFRQGLANVVSLEWLRMFDQQEIQVLISGAQVPISLEDLKSFTNYSGGYSADHPVIKVFWRVVEGFTDEEKRKLLKFVTSCSRPPLLGFKELYPAFCIHNGGSDLERLPTASTCMNLLKLPEFYDETLLRSKLLYAIECAAGFELS [UBE3C] | -0.181 | 50.3 | 50.1 | -0.263 | 0.499 | 0.996 |
| MFSWVSKDARRKKEPELFQTVAEGLRQLYAQKLLPLEEHYRFHEFHSPALEDADFDNKPMVLLVGQYSTGKTTFIRHLIEQDFPGMRIGPEPTTDSFIAVMHGPTEGVVPGNALVVDPRRPFRKLNAFGNAFLNRFMCAQLPNPVLDSISIIDTPGILSGEKQRISRGYDFAAVLEWFAERVDRIILLFDAHKLDISDEFSEVIKALKNHEDKIRVVLNKADQIETQQLMRVYGALMWSLGKIINTPEVVRVYIGSFWSHPLLIPDNRKLFEAEEQDLFKDIQSLPRNAALRKLNDLIKRARLAKVHAYIISSLKKEMPNVFGKESKKKELVNNLGEIYQKIEREHQISPGDFPSLRKMQELLQTQDFSKFQALKPKLLDTVDDMLANDIARLMVMVRQEESLMPSQVVKGGAFDGTMNGPFGHGYGEGAGEGIDDVEWVVGKDKPTYDEIFYTLSPVNGKITGANAKKEMVKSKLPNTVLGKIWKLADVDKDGLLDDEEFALANHLIKVKLEGHELPADLPPHLVPPSKRRHE [EHD1] | 0.171 | 50.6 | 50.5 | -0.0648 | 2.25 | 2.22 |
| MFVELNNLLNTTPDRAEQGKLTLLCDAKTDGSFLVHHFLSFYLKANCKVCFVALIQSFSHYSIVGQKLGVSLTMARERGQLVFLEGLKSAVDVVFQAQKEPHPLQFLREANAGNLKPLFEFVREALKPVDSGEARWTYPVLLVDDLSVLLSLGMGAVAVLDFIHYCRATVCWELKGNMVVLVHDSGDAEDEENDILLNGLSHQSHLILRAEGLATGFCRDVHGQLRILWRRPSQPAVHRDQSFTYQYKIQDKSVSFFAKGMSPAVL [ELP6] | -0.082 | 55.1 | 54.4 | -0.245 | -0.431 | -1.3 |
| MFVPRSLKIKRNANDDGKSCVAKIIKPDPEDLQLDKSRDVPVDAVATEAATIDRHISESCPFPSPGGQLAEVHSVSPEQGAKDSHPSEEPVKSFSKTQRWAEPGEPICVVCGRYGEYICDKTDEDVCSLECKAKHLLQVKEKEEKSKLSNPQKADSEPESPLNASYVYKEHPFILNLQEDQIENLKQQLGILVQGQEVTRPIIDFEHCSLPEVLNHNLKKSGYEVPTPIQMQMIPVGLLGRDILASADTGSGKTAAFLLPVIMRALFESKTPSALILTPTRELAIQIERQAKELMSGLPRMKTVLLVGGLPLPPQLYRLQQHVKVIIATPGRLLDIIKQSSVELCGVKIVVVDEADTMLKMGFQQQVLDILENIPNDCQTILVSATIPTSIEQLASQLLHNPVRIITGEKNLPCANVRQIILWVEDPAKKKKLFEILNDKKLFKPPVLVFVDCKLGADLLSEAVQKITGLKSISIHSEKSQIERKNILKGLLEGDYEVVVSTGVLGRGLDLISVRLVVNFDMPSSMDEYVHQIGRVGRLGQNGTAITFINNNSKRLFWDIAKRVKPTGSILPPQLLNSPYLHDQKRKEQQKDKQTQNDLVTGANLMDIIRKHDKSNSQK [DDX59] | 0.419 | 50.8 | 50.3 | -0.18 | 1.04 | 1.76 |
| MGAFLDKPKTEKHNAHGAGNGLRYGLSSMQGWRVEMEDAHTAVVGIPHGLEDWSFFAVYDGHAGSRVANYCSTHLLEHITTNEDFRAAGKSGSALELSVENVKNGIRTGFLKIDEYMRNFSDLRNGMDRSGSTAVGVMISPKHIYFINCGDSRAVLYRNGQVCFSTQDHKPCNPREKERIQNAGGSVMIQRVNGSLAVSRALGDYDYKCVDGKGPTEQLVSPEPEVYEILRAEEDEFIILACDGIWDVMSNEELCEYVKSRLEVSDDLENVCNWVVDTCLHKGSRDNMSIVLVCFSNAPKVSDEAVKKDSELDKHLESRVEEIMEKSGEEGMPDLAHVMRILSAENIPNLPPGGGLAGKRNVIEAVYSRLNPHRESDGASDEAEESGSQGKLVEALRQMRINHRGNYRQLLEEMLTSYRLAKVEGEESPAEPAATATSSNSDAGNPVTMQESHTESESGLAELDSSNEDAGTKMSGEKI [PPM1B] | -0.164 | 52.9 | 52.6 | 0.0659 | 0.54 | -0.803 |
| MGCAEGKAVAAAAPTELQTKGKNGDGRRRSAKDHHPGKTLPENPAGFTSTATADSRALLQAYIDGHSVVIFSRSTCTRCTEVKKLFKSLCVPYFVLELDQTEDGRALEGTLSELAAETDLPVVFVKQRKIGGHGPTLKAYQEGRLQKLLKMNGPEDLPKSYDYDLIIIGGGSGGLAAAKEAAQYGKKVMVLDFVTPTPLGTRWGLGGTCVNVGCIPKKLMHQAALLGQALQDSRNYGWKVEETVKHDWDRMIEAVQNHIGSLNWGYRVALREKKVVYENAYGQFIGPHRIKATNNKGKEKIYSAERFLIATGERPRYLGIPGDKEYCISSDDLFSLPYCPGKTLVVGASYVALECAGFLAGIGLDVTVMVRSILLRGFDQDMANKIGEHMEEHGIKFIRQFVPIKVEQIEAGTPGRLRVVAQSTNSEEIIEGEYNTVMLAIGRDACTRKIGLETVGVKINEKTGKIPVTDEEQTNVPYIYAIGDILEDKVELTPVAIQAGRLLAQRLYAGSTVKCDYENVPTTVFTPLEYGACGLSEEKAVEKFGEENIEVYHSYFWPLEWTIPSRDNNKCYAKIICNTKDNERVVGFHVLGPNAGEVTQGFAAALKCGLTKKQLDSTIGIHPVCAEVFTTLSVTKRSGASILQAGCUG [TXNRD1] | 0.0191 | 52 | 51.9 | -0.101 | 1.37 | -1.27 |
| MGCAPSIHVSQSGVIYCRDSDESSSPRQTTSVSQGPAAPLPGLFVQTDAADAIPPSRASGPPSVARVRRARTELGSGSSAGSAAPAATTSRGRRRHCCSSAEAETQTCYTSVKQVSSAEVRIGPMRLTQDPIQVLLIFAKEDSQSDGFWWACDRAGYRCNIARTPESALECFLDKHHEIIVIDHRQTQNFDAEAVCRSIRATNPSEHTVILAVVSRVSDDHEEASVLPLLHAGFNRRFMENSSIIACYNELIQIEHGEVRSQFKLRACNSVFTALDHCHEAIEITSDDHVIQYVNPAFERMMGYHKGELLGKELADLPKSDKNRADLLDTINTCIKKGKEWQGVYYARRKSGDSIQQHVKITPVIGQGGKIRHFVSLKKLCCTTDNNKQIHKIHRDSGDNSQTEPHSFRYKNRRKESIDVKSISSRGSDAPSLQNRRYPSMARIHSMTIEAPITKVINIINAAQENSPVTVAEALDRVLEILRTTELYSPQLGTKDEDPHTSDLVGGLMTDGLRRLSGNEYVFTKNVHQSHSHLAMPITINDVPPCISQLLDNEESWDFNIFELEAITHKRPLVYLGLKVFSRFGVCEFLNCSETTLRAWFQVIEANYHSSNAYHNSTHAADVLHATAFFLGKERVKGSLDQLDEVAALIAATVHDVDHPGRTNSFLCNAGSELAVLYNDTAVLESHHTALAFQLTVKDTKCNIFKNIDRNHYRTLRQAIIDMVLATEMTKHFEHVNKFVNSINKPMAAEIEGSDCECNPAGKNFPENQILIKRMMIKCADVANPCRPLDLCIEWAGRISEEYFAQTDEEKRQGLPVVMPVFDRNTCSIPKSQISFIDYFITDMFDAWDAFAHLPALMQHLADNYKHWKTLDDLKCKSLRLPSDS [PDE8B] | -0.134 | 49 | 49.1 | -0.122 | 0.505 | 0.304 |
| MGCDGGTIPKRHELVKGPKKVEKVDKDAELVAQWNYCTLSQEILRRPIVACELGRLYNKDAVIEFLLDKSAEKALGKAASHIKSIKNVTELKLSDNPAWEGDKGNTKGDKHDDLQRARFICPVVGLEMNGRHRFCFLRCCGCVFSERALKEIKAEVCHTCGAAFQEDDVIMLNGTKEDVDVLKTRMEERRLRAKLEKKTKKPKAAESVSKPDVSEEAPGPSKVKTGKPEEASLDSREKKTNLAPKSTAMNESSSGKAGKPPCGATKRSIADSEESEAYKSLFTTHSSAKRSKEESAHWVTHTSYCF [RTFDC1] | 0.0863 | 47.6 | 50.2 | -0.0475 | 1.24 | 2.61 |
| MGCSAKARWAAGALGVAGLLCAVLGAVMIVMVPSLIKQQVLKNVRIDPSSLSFNMWKEIPIPFYLSVYFFDVMNPSEILKGEKPQVRERGPYVYREFRHKSNITFNNNDTVSFLEYRTFQFQPSKSHGSESDYIVMPNILVLGAAVMMENKPMTLKLIMTLAFTTLGERAFMNRTVGEIMWGYKDPLVNLINKYFPGMFPFKDKFGLFAELNNSDSGLFTVFTGVQNISRIHLVDKWNGLSKVDFWHSDQCNMINGTSGQMWPPFMTPESSLEFYSPEACRSMKLMYKESGVFEGIPTYRFVAPKTLFANGSIYPPNEGFCPCLESGIQNVSTCRFSAPLFLSHPHFLNADPVLAEAVTGLHPNQEAHSLFLDIHPVTGIPMNCSVKLQLSLYMKSVAGIGQTGKIEPVVLPLLWFAESGAMEGETLHTFYTQLVLMPKVMHYAQYVLLALGCVLLLVPVICQIRSQVGAGQRAARADSHSLACWGKGASDRTLWPTAAWSPPPAAVLRLCRSGSGHCWGLRSTLASFACRVATTLPVLEGLGPSLGGGTGS [SCARB1] | 0.27 | 56.6 | 63.1 | -0.0198 | -1.41 | -1.54 |
| MGCTVSAEDKAAAERSKMIDKNLREDGEKAAREVKLLLLGAGESGKSTIVKQMKIIHEDGYSEEECRQYRAVVYSNTIQSIMAIVKAMGNLQIDFADPSRADDARQLFALSCTAEEQGVLPDDLSGVIRRLWADHGVQACFGRSREYQLNDSAAYYLNDLERIAQSDYIPTQQDVLRTRVKTTGIVETHFTFKDLHFKMFDVGGQRSERKKWIHCFEGVTAIIFCVALSAYDLVLAEDEEMNRMHESMKLFDSICNNKWFTDTSIILFLNKKDLFEEKITHSPLTICFPEYTGANKYDEAASYIQSKFEDLNKRKDTKEIYTHFTCATDTKNVQFVFDAVTDVIIKNNLKDCGLF [GNAI2] | -0.568 | 53.5 | 54.2 | -0.242 | 0.395 | 0.061 |
